{"source": "the supplement of paper PMC10126150", "note": "± gives the standard deviation of the averaged measurements.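 Further: ATP exposure 15 min at 22 °C before imaging.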"}
{"system": "ATP", "test": "switch fluorescence ratio, 500 uM ATP over buffer (Cy3 cluster intensity, sum of 5 cycles each) (fold (ratio)); higher = stronger signal-on switching upon ATP binding; sequences stand for … in TCGTCGGCAGCGTCAGATGTGTATAAGAGACAGTTTTTTTTTTTTTTTTTTTTTTTTT…TC", "conditions": "aptamer strand: ATP DNA aptamer (quencher-CACCTGGGGGAGTATTGCGGAGGAAGG + anchor), 100 nM annealed; ATP concentration: 500 uM", "procedure,_shortened": "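Between each of five buffer/ATP cycles, the flow-cell was stripped with NaOH and re-annealed. Each cycle imaged Cy3-labelled switching-strand clusters, annealed to 100 nM quencher-labelled ATP aptamer on a modified Illumina MiSeq flow-cell, first in selection buffer and then after 15 min with 500 uM ATP at 22 °C. The fluorescence ratio is summed target-cycle over summed buffer-cycle Cy3 intensity per cluster, averaged per switch-domain sequence, with clusters outside 100-1000 RFU excluded.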"}
{"sequence": "TGGGTCATCT", "switch fluorescence ratio": "1.02 ± 0.065"}
{"sequence": "TGGGTCATGA", "switch fluorescence ratio": "1.03 ± 0.034"}
{"sequence": "TGGGTCATTG", "switch fluorescence ratio": "0.973 ± 0.043"}
{"sequence": "TGGGTCCAGT", "switch fluorescence ratio": "0.98 ± 0.011"}
{"sequence": "TGGGTCTAGG", "switch fluorescence ratio": "0.99 ± 0.043"}
{"sequence": "TGGGTCTGTT", "switch fluorescence ratio": "1.01 ± 0.046"}
{"sequence": "TGGGTGGGGC", "switch fluorescence ratio": "0.997 ± 0.018"}
{"sequence": "TGGGTGGGGT", "switch fluorescence ratio": "1.01 ± 0.026"}
{"sequence": "TGGGTGGTCA", "switch fluorescence ratio": "0.987 ± 0.06"}
{"sequence": "TGGGTGTAGC", "switch fluorescence ratio": "0.986 ± 0.011"}
{"sequence": "TGGGTGTATA", "switch fluorescence ratio": "1.01 ± 0.017"}
{"sequence": "TGGGTGTGGG", "switch fluorescence ratio": "1.02 ± 0.028"}
{"sequence": "TGGGTTAACT", "switch fluorescence ratio": "1.02 ± 0.041"}
{"sequence": "TGGGTTAATC", "switch fluorescence ratio": "1.01 ± 0.052"}
{"sequence": "TGGGTTACTT", "switch fluorescence ratio": "0.995 ± 0.053"}
{"sequence": "TGGGTTAGGG", "switch fluorescence ratio": "1.03 ± 0.044"}
{"sequence": "TGGGTTATCT", "switch fluorescence ratio": "0.972 ± 0.028"}
{"sequence": "TGGGTTCGCG", "switch fluorescence ratio": "0.988 ± 0.021"}
{"sequence": "TGGGTTCGGG", "switch fluorescence ratio": "0.9503 ± 0.0091"}
{"sequence": "TGGGTTGAGT", "switch fluorescence ratio": "0.987 ± 0.017"}
{"sequence": "TGGGTTGATA", "switch fluorescence ratio": "0.9958 ± 0.0069"}
{"sequence": "TGGGTTGGCC", "switch fluorescence ratio": "0.99 ± 0.043"}
{"sequence": "TGGGTTGGCG", "switch fluorescence ratio": "1.04 ± 0.028"}
{"sequence": "TGGGTTGGCT", "switch fluorescence ratio": "1.015 ± 0.0098"}
{"sequence": "TGGGTTGGTA", "switch fluorescence ratio": "1.02 ± 0.02"}
{"sequence": "TGGGTTGGTG", "switch fluorescence ratio": "1.03 ± 0.032"}
{"sequence": "TGGGTTGTGG", "switch fluorescence ratio": "1.01 ± 0.053"}
{"sequence": "TGGGTTTAAC", "switch fluorescence ratio": "1.08 ± 0.18"}
{"sequence": "TGGGTTTCCT", "switch fluorescence ratio": "0.987 ± 0.017"}
{"sequence": "TGGGTTTGGG", "switch fluorescence ratio": "0.984 ± 0.035"}
{"sequence": "TGGGTTTTAC", "switch fluorescence ratio": "1.01 ± 0.049"}
{"sequence": "TGGGTTTTGC", "switch fluorescence ratio": "0.994 ± 0.044"}
{"sequence": "TGGGTTTTTC", "switch fluorescence ratio": "0.968 ± 0.03"}
{"sequence": "TGGTAAAAAA", "switch fluorescence ratio": "0.959 ± 0.016"}
{"sequence": "TGGTAACAGG", "switch fluorescence ratio": "1.01 ± 0.021"}
{"sequence": "TGGTACAAAA", "switch fluorescence ratio": "1.04 ± 0.025"}
{"sequence": "TGGTACAGGG", "switch fluorescence ratio": "1.03 ± 0.018"}
{"sequence": "TGGTACGGAG", "switch fluorescence ratio": "1 ± 0.011"}
{"sequence": "TGGTAGACGG", "switch fluorescence ratio": "1.15 ± 0.26"}
{"sequence": "TGGTAGGCGT", "switch fluorescence ratio": "0.987 ± 0.031"}
{"sequence": "TGGTAGGGGG", "switch fluorescence ratio": "0.9867 ± 0.0046"}
{"sequence": "TGGTATAGGG", "switch fluorescence ratio": "1.01 ± 0.024"}
{"sequence": "TGGTATAGTT", "switch fluorescence ratio": "0.981 ± 0.049"}
{"sequence": "TGGTATTCGC", "switch fluorescence ratio": "1.01 ± 0.023"}
{"sequence": "TGGTATTGGT", "switch fluorescence ratio": "0.9655 ± 0.0041"}
{"sequence": "TGGTCAAAGA", "switch fluorescence ratio": "0.986 ± 0.015"}
{"sequence": "TGGTCAGGGG", "switch fluorescence ratio": "1.09 ± 0.056"}
{"sequence": "TGGTCCGGGA", "switch fluorescence ratio": "1.03 ± 0.029"}
{"sequence": "TGGTCGCAGG", "switch fluorescence ratio": "0.9899 ± 0.005"}
{"sequence": "TGGTCGCGAT", "switch fluorescence ratio": "1.53 ± 0.73"}
{"sequence": "TGGTCGGGGG", "switch fluorescence ratio": "0.997 ± 0.025"}
{"sequence": "TGGTCGTAGT", "switch fluorescence ratio": "0.994 ± 0.048"}
{"sequence": "TGGTCTAATG", "switch fluorescence ratio": "0.9791 ± 0.002"}
{"sequence": "TGGTGCGGGC", "switch fluorescence ratio": "1.05 ± 0.12"}
{"sequence": "TGGTGCTGGG", "switch fluorescence ratio": "0.9733 ± 0.0066"}
{"sequence": "TGGTGGAAAC", "switch fluorescence ratio": "0.99116 ± 0.00084"}
{"sequence": "TGGTGGAGAT", "switch fluorescence ratio": "1.01 ± 0.028"}
{"sequence": "TGGTGGAGCA", "switch fluorescence ratio": "0.986 ± 0.024"}
{"sequence": "TGGTGGGGCT", "switch fluorescence ratio": "0.994 ± 0.026"}
{"sequence": "TGGTGGGGTT", "switch fluorescence ratio": "0.984 ± 0.02"}
{"sequence": "TGGTGGTGCA", "switch fluorescence ratio": "1.04 ± 0.039"}
{"sequence": "TGGTGGTGTA", "switch fluorescence ratio": "0.954 ± 0.035"}
{"sequence": "TGGTGTATCC", "switch fluorescence ratio": "0.985 ± 0.019"}
{"sequence": "TGGTGTCAAT", "switch fluorescence ratio": "1 ± 0.017"}
{"sequence": "TGGTGTCAGT", "switch fluorescence ratio": "0.977 ± 0.022"}
{"sequence": "TGGTGTCGGG", "switch fluorescence ratio": "0.998 ± 0.013"}
{"sequence": "TGGTGTCGTG", "switch fluorescence ratio": "0.999 ± 0.034"}
{"sequence": "TGGTGTTTTT", "switch fluorescence ratio": "0.992 ± 0.027"}
{"sequence": "TGGTTACCAT", "switch fluorescence ratio": "1.02 ± 0.057"}
{"sequence": "TGGTTAGCG", "switch fluorescence ratio": "1.04 ± 0.024"}
{"sequence": "TGGTTAGGGA", "switch fluorescence ratio": "1.01 ± 0.026"}
{"sequence": "TGGTTAGGTT", "switch fluorescence ratio": "0.966 ± 0.013"}
{"sequence": "TGGTTAGTTG", "switch fluorescence ratio": "0.994 ± 0.013"}
{"sequence": "TGGTTCAGGG", "switch fluorescence ratio": "0.997 ± 0.04"}
{"sequence": "TGGTTCAGGT", "switch fluorescence ratio": "1.02 ± 0.022"}
{"sequence": "TGGTTCAGTG", "switch fluorescence ratio": "0.993 ± 0.048"}
{"sequence": "TGGTTCCCTT", "switch fluorescence ratio": "1.02 ± 0.07"}
{"sequence": "TGGTTCCGGG", "switch fluorescence ratio": "1.01 ± 0.02"}
{"sequence": "TGGTTGAAT", "switch fluorescence ratio": "1.01 ± 0.049"}
{"sequence": "TGGTTGAGTT", "switch fluorescence ratio": "0.973 ± 0.021"}
{"sequence": "TGGTTGTAAG", "switch fluorescence ratio": "1.03 ± 0.024"}
{"sequence": "TGGTTGTGAG", "switch fluorescence ratio": "1 ± 0.0065"}
{"sequence": "TGGTTGTTGC", "switch fluorescence ratio": "0.998 ± 0.043"}
{"sequence": "TGGTTGTTGT", "switch fluorescence ratio": "0.96 ± 0.014"}
{"sequence": "TGGTTTAACG", "switch fluorescence ratio": "0.99243 ± 0.00051"}
